Data taken from paper PMC11909895.

What was measured:
[1] = biological target: beta-Nrxn1ΔC, C-terminal truncated mutant beta-Nrxn1 (-AS4); test: co-IP; HA antibody (clone 3F10) and Protein-G Sepharose from striatum lysates of adult control and beta-Nrxn1ΔC mice; lysis buffer 20 mM Tris-HCl pH 7.5, 100 mM NaCl, 5 mM MgCl2, 5 mM CaCl2, 1% Triton X-100; blots for Nlgn1, Nlgn2, Nlgn3, LRRTM2
[2] = biological target: beta-Nrxn1ΔC, C-terminal truncated mutant beta-Nrxn1 (-AS4); test: co-IP; HA antibody (clone 3F10) and Protein-G Sepharose from cortex lysates of adult control and beta-Nrxn1ΔC mice (untreated, or DOX 14 days then 30 days re-expression); lysis buffer 20 mM Tris-HCl pH 7.5, 100 mM NaCl, 5 mM MgCl2, 5 mM CaCl2, 1% Triton X-100; blots for Nlgn1, Nlgn2, Nlgn3, LRRTM2

## Nlgn1 (neuroligin-1) (from UniProt Q99K10 46-843) (natural protein)
[1]
  Nlgn1 levels in the co-immunoprecipitates as percentage of total Nlgn1 in the initial lysates: 1.74%
[2]
  Nlgn1 levels in the co-immunoprecipitates as percentage of total Nlgn1 in the initial lysates: 5.01%
